1 molecule from patent US20170037117A1, “COMPOSITIONS AND METHODS FOR TREATING METABOLIC DISORDERS” (Salk Institute for Biological Studies, priority 2014, published 2017) can be followed below.

For this assay, the target named is T1, human α-CGRP (Homo sapiens, UniProt P06881).
T1 construct: 1-37 (WT); purchased GenScript Corporation or Global Peptide Services
T1 sequence (P06881 83-119 limits assumed): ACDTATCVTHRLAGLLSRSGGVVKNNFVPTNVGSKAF
Put plainly: Biacore affinity of G1 Fab and variants to human α-CGRP. The settings on record: 37° C.; Fab fragments; screening mode except underlined values (G1 high-resolution mode). In kind it is binding. The procedure:
Biacore assay for affinity determination. […] All Biacore assays were conducted in HBS-EP running buffer (10 mM HEPES pH 7.4, 150 mM NaCl, 3 mM EDTA, 0.005% v/v polysorbate P20). CGRP surfaces were prepared by diluting the N-biotinylated CGRP to a concentration of less than 0.001 mg/mL into HBS-EP buffer and injecting it across the SA sensor chip using variable contact times. Low capacity surfaces, corresponding to capture levels <50 response units (RU) were used for high-resolution kinetic studies, whereas high capacity surfaces (about 800 RU of captured CGRP) were used for concentration studies, screening, and solution affinity determinations. […] Samples were typically injected for 1 minute at 100 μL/min and dissociation times of at least 10 minutes were allowed. After each binding cycle, surfaces were regenerated with 25 mM NaOH in 25% v/v ethanol, which was tolerated over hundreds of cycles. […]
High-resolution analysis of binding interactions with extremely slow offrates. […] The association rate constant (kon) was determined by injecting a 2-fold titration series (in duplicate) spanning 550 nM-1 nM for 30 sec at 100 uL/min and allowing only a 30 sec dissociation phase. The dissociation rate constant (koff) was determined by injecting three concentrations (high, medium, and low) of the same titration series in duplicate for 30 sec and allowing a 2-hour dissociation phase. […]
(In general: Surface plasmon resonance follows binding to a sensor surface in real time, without labels.)

B1: M25: G1 variant: L1 R28N; HC-FW3 L99T A100V (antibody, V domains shown)
VH: EVQLVESGGGLVQPGGSLRLSCAASGFTFSNYWISWVRQAPGKGLEWVAEIRSESDASATHYAEAVKGRFTISRDNAKNSLYLQMNSLRAEDTAVYYCTVYFDYGLAIQNYWGQGTLVTVSS
VL: EIVLTQSPATLSLSPGERATLSCKASKNVTTYVSWYQQKPGQAPRLLIYGASNRYLGIPARFSGSGSGTDFTLTISSLEPEDFAVYYCSQSYNYPYTFGQGTKLEIK
As to B1, the “α-human koff” value came to 0.00014 s⁻¹.
